Positions count from the first letter of the chain named.
T1: recombinant human BCMA-his fusion protein (ACRO Biosystem, Cat. No. BCA-H522y) (human, UniProt Q02223 1-54)
T1 construct: extracellular domain; Bought protein; also called huBCMA-his; hu BCMA-his; not shown: His tag
T1 sequence (looked up): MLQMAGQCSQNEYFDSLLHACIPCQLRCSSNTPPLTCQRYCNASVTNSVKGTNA

T2: human BCMA on cells (NCI-H929, U266B1, HEK293 huBCMA) (human, UniProt Q02223 1-184)
T2 construct: whole, on cells; also called cell surface BCMA antigen
T2 sequence (looked up): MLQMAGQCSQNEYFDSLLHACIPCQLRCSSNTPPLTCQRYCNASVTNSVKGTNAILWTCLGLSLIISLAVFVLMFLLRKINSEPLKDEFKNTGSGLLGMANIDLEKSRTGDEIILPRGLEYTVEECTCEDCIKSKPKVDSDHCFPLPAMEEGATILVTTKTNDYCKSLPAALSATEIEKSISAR

B1: soluble human APRIL (ACRO, Cat. No. APL-H5244) (ligand, UniProt O75888 115-250, looked up)
chain: HSVLHLVPINATSKDDSDVTEVMWQPALRRGRGLQAQGYGVRIQDAGVYLLYSQVLFQDVTFTMGQVVSREGQGRQETLFRCIRSMPSHPDRAYNSCYSAGVFHLHQGDILSVIIPRARAKLNLSPHGTFLGFVKL
notes: also called APRIL ligand; APRIL-biotin
B2: humanized antibody hu-mAb2 (VH2+VL2) (antibody, V domains shown)
VH: QVQLVQSGAEVKKPGSSVKVSCKVSGYTFTDHTIHWMKQAPGQGLEWIGYIYPRNGNTKYNEKFKGKATLTADKSTSTAYMELSSLRSEDTAVYFCARYDYDGYFDVWGQGTLVTVSS
VL: DVVMTQTPLSLSVTPGQPASISCRSSQSHVHSDGHTYLHWYLQKPGQSPELLIYKVSNRFSGVPDRFSGSGSGTDFTLKISRVEAEDVGVYFCSQNTHFPWTFGGGTKVEIK
notes: human IgG1/kappa named only as preferred
B3: mouse monoclonal antibody 202E11H10E3 (antibody, V domains shown)
VH: QVQLQQSDAELVKPGTSVKISCKVSGYTFTDHTIHWMKQRPEQGLEWIGYIYPRNGNTKYNEKFKGKATLTADKSSSTAYMHLNSLTSEDSAVYFCARYDYDGYFDVWGTGTTVTVSS
VL: B2 VL with S12P, T14S, P15L, Q17D, P18Q, V88L, V109L
notes: detected with anti-mouse IgG; also called Clone 202E11H10E3; BCMA-HC2/BCMA-LC2
B4: humanized antibody hu-mAb3 (VH3+VL3) (antibody, V domains shown)
VH: QVQLVQSGAEVKKPGASVKVSCKASGYTITDYNMDWVRQAPGQGLEWIGNINPHNGGSIYNQKFQGRATLTVDKSTSTAYMELSSLRSEDTAVYYCARGDATLVLDYWGQGTTVTVSS
VL: DIQLTQSPSSLSASVGDRATITCRASKSVSTSGLSYMHWYQQKPGKAPKVLIYLASNLESGVPARFSGSGSGTDFTLTISSVQPEDFATYYCQHSRELPPTFGQGTKLELK
notes: as for B2
B5: mouse monoclonal antibody 18F6G3H9 (antibody, V domains shown)
VH: EVQLQQSGPELVKPGTSVEMSCKASGYTFTDYNIHWVRQRHGESLEWLGYINPNNGVTNFNQKFKGKATLTVNKSSSTAYMELRSLTSDDSAVYYCSSGLFDGYPFPYWGQGTLVTVSA
VL: DIVLTQSPASLVVSLGQRATISCRASKSVSTSGYNYIHWYQQKPGQPPKLLIFLASNLKSGVPARFSGGGSGTDFTLNIHPVEEDDAATYFCQHNRELPYTFGGGTKVEIK
notes: detected with anti-mouse IgG; also called Clone 18F6G3H9; BCMA-HC1/BCMA-LC1

How the values were obtained:
[1] = target: T1, recombinant human BCMA-his fusion …; assay: competitive ELISA, coated huBCMA-his, competitor APRIL-biotin
Experimental: The 96-well microplate was treated with 100 μL of 0.5 μg/mL huBCMA-his in PBS and incubated overnight at 4° C. The plate was then washed thrice with PBS washing buffer containing 0.1% of Tween-20 and blocked with 300 μL of PBS containing 1% of BSA for 2 h. 100 μL of each BCMA antibody was added to the plate. […] The plate was incubated at 37° C. for 1 h, and unbound secondary antibody was washed with PBS washing buffer containing 0.1% of Tween-20. The TMB chromogenic solution was added at 100 μL/well. After a 5-min reaction at room temperature, 2 M H₂SO₄ was added at 100 μL/well to terminate the reaction. The microplate was placed on a microplate reader (Molecular Devices, SPECTRA Max plus 384) and the absorbance OD450 value was read at 450 nm wavelength.

[2] = target: T1, recombinant human BCMA-his fusion …; assay: as above; remark: listed apart in the source
[3] = target: T1, recombinant human BCMA-his fusion …; assay: competitive ELISA, coated huBCMA-his, competitor 83A10-biotin, antibody at 7 µg/mL
[4] = target: T2, human BCMA on cells (NCI-H929, U266B1, …); assay: flow cytometry on NCI-H929 cells
Experimental: (§1) Procedures: Preparation of cell suspensions: The cells were resuspended in PBS, and the cell density was adjusted to 2×10⁵ cells/well. Mouse antibodies were added to a 96-well plate at […] and serially 3-fold diluted from 3000 nM. The plate was incubated for 1 h at 4° C. 150 μL of precooled PBS containing 1% of FBS was added into the 96-well plate after the co-incubation with the primary antibody was finished. The mixtures were centrifuged at 300×g for 5 min and the supernatants were discarded. The above procedures were repeated once. The fluorescent secondary antibody PE […] (Biolegend, 409304) was added at 80 μL/well. The plate was incubated at 4° C. for 30 min. 150 μL of precooled PBS containing 1% of FBS was added into the 96-well plate after the co-incubation with the secondary antibody was finished. The mixtures were uniformly mixed with a pipette. The 96-well plate was centrifuged at 300×g for 5 min in a plate centrifuge and the supernatants were removed. The above procedures were repeated once. The cells were resuspended in 100 μL of PBS containing 1% of FBS and detected on a flow cytometry (BD Accuri™ C6).

[5] = target: T1, recombinant human BCMA-his fusion …; assay: competitive ELISA, coated huBCMA-his, competitor 83A10-biotin
[6] = target: T1, recombinant human BCMA-his fusion …; assay: SPR (Biacore T200), anti-His capture on CM5, 1:1 fit
Experimental: (§2) In this example, the antigen-antibody binding kinetics and affinity were determined by the BIACORE method.
(§3) Procedures: The anti-histidine antibody (GE, His capture Kit, Cat. No. 28995056) was conjugated to the Sereis S Sensor Chip CMS to capture the test articles, thus acquiring the binding kinetic and affinity data of the antigen, as an analyte, to the test articles. The initial concentration for detecting the binding of the antigen and the test articles was 10 nM. […] The Start up flushing process (1×HBS-EP+buffer) was performed at least thrice before loading to equilibrate the system. The association and dissociation tendencies between the antigen and the test articles were detected. When the dissociation was completed, a regeneration reagent was loaded for regeneration before the detection of the next concentration was performed. After the detection was finished, the data were fitted by using a 1:1 Binding fitting mode in data analysis software (Biacore T200 Evaluation Software).

[7] = target: T1, recombinant human BCMA-his fusion …; assay: ELISA, coated antigen
Experimental: (§4) Procedures: huBCMA-his and cynoBCMA-his antigens were prepared into 0.5 μg/mL coating solutions with PBS (pH 7.4). The coating solutions were added to a microplate at 100 μL/well and incubated at 4° C. overnight. The residual coating solution was discarded before 3% BSA was added at 300 μL/well, and the plate was blocked for 3 h at room temperature. The microplate was washed once with PB ST at 300 The stock humanized monoclonal antibody solutions were serially 3-fold diluted to the 11th concentration. The dilutions were added to the microplate at 100 μL/well. After a 1-h incubation at room temperature, the microplate was washed thrice with PBST at 300 The HRP-conjugated 6*His, His-Tag antibody was 25,000-fold diluted with 1% BSA-PBST and added at 100 After another 1-h incubation at room temperature, the microplate was washed thrice with PB ST at 300 μL/well and dried. The TMB chromogenic solution was added at 100 μL. After a 5-min reaction at room temperature, 2 M H2504 was added at 100 μL/well to terminate the reaction. The microplate was placed on a microplate reader (Molecular Devices, SPECTRA Max plus 384) and the absorbance OD450 value was read at 450 nm wavelength.

[8] = target: T2, human BCMA on cells (NCI-H929, U266B1, …); assay: flow cytometry on NCI-H929 cells; remark: listed apart in the source
Experimental: (§5) The affinities of the 3 mouse antibodies for cell surface BCMA antigen were assessed using FACS. Materials: cell lines NCI-H929, U266B1, HEK293 cynoBCMA and HEK293; PBS buffer; FBS (fetal bovine serum; Gibco, 10099141); PE goat anti-mouse IgG Fc (Biolegend, 405307). Procedures: The cells were resuspended in PBS to prepare cell suspensions containing 200,000 cells. Mouse BCMA antibodies were added to a 96-well plate at 50 μL/well and serially 3-fold diluted from 3000 nM. The plate was incubated for 1 h at 4° C. 150 μL of precooled PBS containing 1% of FBS was added into the 96-well plate after the co-incubation with the primary antibody was finished. The mixtures were centrifuged at 300×g for 5 min and the supernatants were discarded. The above procedures were repeated once. The fluorescent secondary antibody PE goat anti-mouse IgG Fc was added at 80 μL/well. The plate was incubated at 4° C. for 30 min. 150 μL of precooled PBS containing 1% of FBS was added into the 96-well plate after the co-incubation with the secondary antibody was finished. The mixtures were uniformly mixed with a pipette. The 96-well plate was centrifuged at 300×g for 5 min in a plate centrifuge and the supernatants were discarded. The above procedures were repeated once. The cells were resuspended in 100 μL of PBS containing 1% of FBS and detected on a flow cytometry (BD Accuri™ C6).

[9] = target: T2, human BCMA on cells (NCI-H929, U266B1, …); assay: flow cytometry on U266B1 cells
Experimental: as §5

[10] = target: T3, recombinant human BCMA-huFc fusion protein (human); assay: indirect ELISA, coated antigen
T3 construct: also called huBCMA-huFc
Experimental: Procedures: Human, mouse and monkey BCMA antigens were prepared into 0.5 μg/mL coating solutions with PBS buffer. The coating solutions were added to a microplate at 100 μL/well and incubated at 4° C. overnight. The residual coating solution was discarded before 3% BSA was added at 300 μL/well, and the plate was blocked for 3 h at room temperature. The microplate was washed once with PBST (PBS containing 0.1% of TWEEN 20) at 300 μL/well. The three mouse BCMA antibodies were serially 3-fold diluted from 10 μg/mL to the 7th concentration. The dilutions were added to the microplate at 100 μL/well. After a 1-h incubation at room temperature, the microplate was washed thrice with PBST at 300 μL/well. The HRP goat anti-mouse IgG antibody was 25,000-fold diluted with 1% BSA-PBST and added at 100 μL/well. After another 1-h incubation at room temperature, the microplate was washed thrice with PBST at 300 μL/well and dried. The TMB chromogenic solution was added at 100 μL/well. After a 5-min reaction at room temperature, 2 M H₂SO₄ was added at 100 μL/well to terminate the reaction. The microplate was placed on a microplate reader (Molecular Devices, SPECTRA Max plus 384) and the absorbance OD450 value was read at 450 nm wavelength.

[11] = target: T4, cynomolgus monkey BCMA on HEK293 cynoBCMA cells (cynomolgus monkey, UniProt A0A2K5UD97 1-183); assay: flow cytometry on HEK293 cynoBCMA cells
T4 construct: whole, on cells
T4 sequence (A0A2K5UD97 entry or part of it): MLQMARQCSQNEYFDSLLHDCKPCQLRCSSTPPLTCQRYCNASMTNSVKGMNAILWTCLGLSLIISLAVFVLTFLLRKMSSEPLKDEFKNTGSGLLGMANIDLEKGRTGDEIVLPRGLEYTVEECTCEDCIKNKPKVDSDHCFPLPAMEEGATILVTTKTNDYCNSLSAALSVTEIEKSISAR
Experimental: as §1

[12] = target: T5, recombinant cynomolgus monkey cynoBCMA-his (ACRO Biosystem, Cat. No. BCA-052H7) (cynomolgus monkey, UniProt A0A2K5UD97 1-53); assay: SPR (Biacore T200), anti-His capture on CM5, 1:1 fit
T5 construct: extracellular domain; Bought protein; also called cynomolgus/rhesus macaque BCMA/TNFRSF17 protein; not shown: His tag
T5 sequence (A0A2K5UD97 entry or part of it): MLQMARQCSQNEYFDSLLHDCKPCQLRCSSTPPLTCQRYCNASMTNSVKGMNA
Experimental: as §2, §3

[13] = target: T5, recombinant cynomolgus monkey …; assay: competitive ELISA, coated cynoBCMA-his, competitor 83A10-biotin
[14] = target: T5, recombinant cynomolgus monkey …; assay: ELISA, coated antigen
Experimental: as §4

Binder	IC50 [2]	EC50 [4]	IC50 [5]	Kd [6]	koff [6]	kon [6]	EC50 [7]	EC50 [8]	EC50 [9]	EC50 [10]	further results
B1	3.7 mg/L										IC50 [1]: 0.0247 mg/L
B2	2.76 mg/L	0.83 nM	8.35 mg/L	1.15 nM	0.0258 s⁻¹	2.24e+07 M⁻¹ s⁻¹	0.00271 nM				competition [3]: 30%
B3								1.1 nM	1 nM	0.0764 nM	
B4	0.918 mg/L	8.07 nM	1.37 mg/L	0.399 nM	0.00235 s⁻¹	5.9e+06 M⁻¹ s⁻¹	0.0226 nM				EC50 [11]: 3.76 nM; Kd [12]: 0.256 nM; koff [12]: 0.000773 s⁻¹; kon [12]: 3.02e+06 M⁻¹ s⁻¹; IC50 [13]: 1.32 mg/L; EC50 [14]: 0.0303 nM
B5								3.1 nM	1.6 nM	0.0705 nM	

— patent US20240117061A1 (WUHAN YZY BIOPHARMA, published 2024)
